In publication PMC7305210, “Mitochondria-adaptor TRAK1 promotes kinesin-1 driven transport in crowded environments” (Nature Communications, 2020):

Molecular target: microtubules polymerized from porcine tubulin (porcine, UniProt P02550 1-451; Q767L7 1-444, Alexa Fluor 647 NHS ester on 20% of the tubulin in fluorescently labeled microtubules | Alexa Fluor 647 NHS ester on 20% of the tubulin in fluorescently labeled microtubules)
Assay: single-molecule TIRF microscopy, two-colour co-movement on immobilised microtubules; KIF5B construct and 175 nM TRAK1 construct pre-incubated 10 min on ice, flushed onto bare immobilised microtubules in motility buffer with 1 mM Mg-ATP; room temperature; for the complexes traces of the mCherry-TRAK1 channel analysed
Conditions: both partners purified

median interaction time with microtubules: 5.33 s
B1: KIF5B-GFP-mCherry-TRAK1∆ complex (complex)
chain 1: MADLAECNIKVMCRFRPLNESEVNRGDKYIAKFQGEDTVVIASKPYAFDRVFQSSTSQEQVYNDCAKKIVKDVLEGYNGTIFAYGQTSSGKTHTMEGKLHDPEGMGIIPRIVQDIFNYIYSMDENLEFHIKVSYFEIYLDKIRDLLDVSKTNLSVHEDKNRVPYVKGCTERFVCSPDEVMDTIDEGKSNRHVAVTNMNEHSSRSHSIFLINVKQENTQTEQKLSGKLYLVDLAGSEKVSKTGAEGAVLDEAKNINKSLSALGNVISALAEGSTYVPYRDSKMTRILQDSLGGNCRTTIVICCSPSSYNESETKSTLLFGQRAKTIKNTVCVNVELTAEQWKKKYEKEKEKNKILRNTIQWLENELNRWRNGETVPIDEQFDKEKANLEAFTVDKDITLTNDKPATAIGVIGNFTDAERRKCEEEIAKLYKQLDDKDEEINQQSQLVEKLKTQMLDQEELLASTRRDQDNMQAELNRLQAENDASKEEVKEVLQALEELAVNYDQKSQEVEDKTKEYELLSDELNQKSATLASIDAELQKLKEMTNHQKKRAAEMMASLLKDLAEIGIAVGNNDVKQPEGTGMIDEEFTVARLYISKMKSEVKTMVKRCKQLESTQTESNKKMEENEKELAACQLRISQHEAKIKSLTEYLQNVEQKKRQLEESVDALSEELVQLRAQEKVHEMEKEHLNKVQTANEVKQAVEQQIQSHRETHQKQISSLRDEVEAKAKLITDLQDQNQKMMLEQERLRVEHEKLKATDQEKSRKLHELTVMQDRREQARQDLKGLEETVAKELQTLHNLRKLFVQDLATRVKKSAEIDSDDTGGSAAQKQKISFLENNLEQLTKVHKQLVRDNADLRCELPKLEKRLRATAERVKALESALKEAKENASRDRKRYQQEVDRIKEAVRSKNMARRGHSAQIAKPIRPGQHPAASPTHPSAIRGGGAFVQNSQPVAVRGGGGKQV
chain 2: MALVFQFGQPVRAQPLPGLCHGKLIRTNACDVCNSTDLPEVEIISLLEEQLPHYKLRADTIYGYDHDDWLHTPLISPDANIDLTTEQIEETLKYFLLCAERVGQMTKTYNDIDAVTRLLEEKERDLELAARIGQSLLKKNKTLTERNELLEEQVEHIREEVSQLRHELSMKDELLQFYTSAAEESEPESVCSTPLKRNESSSSVQNYFHLDSLQKKLKDLEEENVVLRSEASQLKTETITYEEKEQQLVNDCVKELRDANVQIASISEELAKKTEDAARQQEEITHLLSQIVDLQKKAKACAVENEELVQHLGAAKDAQRQLTAELRELEDKYAECMEMLHEAQEELKNLRNKTMPNTTSRRYHSLGLFPMDSLAAEIEGTMRKELQLEEAESPDITHQKRVFETVRNINQVVKQRSLTPSPMNIPGSNQSSAMNSLLSSCVSTPRSSFYGSDIGNVVLDNKTNSIILETEAADLGNDERSKKPGTPGTPGSHDLETALRRLSLRRENYLSERRFFEEEQERKLQELAEKGELRSGSLTPTESIMSLGTHSRFSEFTGFSGMSFSSRSYLPEKLQIVKPLEGSATLHHWQQLAQPHLGGILDPRPGVVTKGFRTLDVDLDEVYCLNDFEEDDTGD
notes: KIF5B, kinesin-1 heavy chain, human, amino acids 1-963; as m1; TRAK1, stop codon after amino acid 635; as m6; also called truncated KIF5B-GFP-mCherry-TRAK1∆ complex; source: the two purified proteins (m1 from SF9, m6 from HEK293T) pre-incubated 10 min on ice; not shown: GFP, C-terminal, kept; 6xHis, C-terminal, cleaved; mCherry, N-terminal, kept; TwinStrep-FLAG-Halo, N-terminal, cleaved
